Measurements from PMC9891525.

Biological target: SARS-CoV-2 Delta variant S1 protein (SARS-CoV-2)
Assay: SPR

## original monoclonal antibody REGN10987
  Kd: 0.9 nM
